Measured values taken from US20200407462A1 (MINERVA BIOTECHNOLOGIES, published 2020).

Columns and labels:
[1] = molecular target: T1, N-10 peptide (N-10 PSMGFR); assay: peptide binding, told in text
T1 construct: also called PSMGFR N-10
T1 peptide: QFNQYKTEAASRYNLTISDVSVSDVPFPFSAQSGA

[2] = molecular target: T2, C-10 peptide (C-10 PSMGFR); assay: binding to peptides (ELISA, FIG. 39)
T2 construct: also called PSMGFR C-10
T2 peptide: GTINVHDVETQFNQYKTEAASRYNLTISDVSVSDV
Experimental: (§1) All monoclonal antibodies were first selected based on their ability to bind to the immunizing peptide. To further elucidate the epitope within that peptide to which the antibody binds, antibodies were tested for their ability to bind to the PSMGFR peptide, the N−10 peptide or the C−10 peptide.

[3] = molecular target: T3, PSMGFR peptide (Primary Sequence of the MUC1 Growth Factor Receptor); assay: selection of clones on the immunizing peptide
T3 peptide: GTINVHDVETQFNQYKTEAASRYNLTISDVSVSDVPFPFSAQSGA

[4] = molecular target: T1, N-10 peptide (N-10 PSMGFR); assay: peptide binding, told in legend
PSMGFR N+20/C-27 peptide = molecular target: T4, PSMGFR N+20/C-27 peptide; assay: selection of clones on the immunizing peptide
T4 construct: also called N+20/C-27 PSMGFR
T4 peptide: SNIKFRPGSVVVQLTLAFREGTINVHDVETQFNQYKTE

PSMGFR N+9/C-9 peptide = molecular target: T5, PSMGFR N+9/C-9 peptide; assay: selection of clones on the immunizing peptide
T5 peptide: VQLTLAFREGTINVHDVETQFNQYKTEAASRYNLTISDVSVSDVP

[5] = molecular target: T2, C-10 peptide (C-10 PSMGFR); assay: ELISA on peptides
[6] = molecular target: T1, N-10 peptide (N-10 PSMGFR); assay: ELISA on peptides (FIG. 39)
Experimental: as §1

B1: 20A10 monoclonal anti-MUC1* antibody (antibody, V domains shown)
VH: EVMLVESGGGLVKPGGSLKLSCAASGFTFSTYAMSWIRQTPEKRLEWVASIGRAGSTYYSDSVKGRFTISRDNVRNILYLQMSSLRSEDTAMYYCARGPIYNDYDEFAYWGQGTLVTVSA
VL: NIMMTQSPSSLAVSAGEKVTMSCKSSQSVLYSSNQKNYLAWYQQKPGQSPKLLIYWASTRESGVPDRFTGSGSGTDFTLTISSVQAEDLAVYYCHQYLSSLTFGAGTKLELK
notes: Immunogen PSMGFR peptide; also called Antibody 20A10
Q: Which results are given for B1?
A: binding result [1]: binds; binding result [2]: no binding; binding result [3]: binds

B2: 25E6 monoclonal anti-MUC1* antibody (antibody, V domains shown)
VH: EVQLVESGGDLVKPGGSLKLSCAASGFTFSSYGMSWVRQTPDKRLEWVATISNGGRHTFYPDSVKGRFTISRDNAKNTLYLQMSSLKSEDTAMYLCVRQTGTEGWFAYWGQGTLVTVSA
VL: not shown
notes: Immunogen PSMGFR peptide; also called Antibody 25E6
Q: What does the source list for B2?
A: binding result [4]: binds; binding result [3]: binds

B3: 31A1 monoclonal anti-MUC1* antibody (antibody, V domains shown)
VH: QVQLQQSGAELAKPGASVKMSCKASGYTFTSYWMHWVKQRPGQGLEWIGYINPSTGYTEYNQKFKDKATLTADKSSSTAYMQLSSLTSEDSAVYYCARAYIDYWGQGTTLTVSS
VL: DVLMTQTPLSLPVSLGDQASFSCRSSQSIVHSNGNTYLEWYLQKPGQSPKLLIYKVSNRFSGVPDRFSGSGSGTDFTLKINRVEAEDLGVYYCFQVSHFPWTFGGGTKLEIK
notes: Immunogen PSMGFR N+20/C-27 peptide; also called Antibody 31A1
Q: Does B3 bind (PSMGFR N+20/C-27 peptide)?
A: Result: binds

B4: 39H5 monoclonal anti-MUC1* antibody (antibody, V domains shown)
VH: QIQLVQSGPELKKPGETVKISCKASGYTFTNYGMNWVKQAPGKGLKWMGWINTYTGEPTYVGDFKGRFAFSLETSASTAYLQINNLKNEDTATYFCVRGIHGYVDYWGQGTTLTVSS
VL: DVLMTQTPLSLPVSLGDQASISCRSSQSIVHRNGNTYLEWYLQKPGQSPKLLIYKVSNRFSGVPDRFSGSGSGTDFTLKISRVEAEDLGVYYCFQGSHLPWTFGGGTKLEIK
notes: Immunogen PSMGFR N+9/C-9 peptide; also called Antibody 39H5
Q: Does B4 bind (PSMGFR N+9/C-9 peptide)?
A: Result: binds

B5: 18G12 monoclonal anti-MUC1* antibody (antibody, V domains shown)
VH: QVQLQQSGAELVKPGASVKLSCKASGYTFTGYFLYWVKQRPGQGLEWIGGINPDNGGIDFNEKFRNKATLTVDKSSSTAYMQLSSLTSEDSAVYYCTLLIGNYWGQGTTLTVSS
VL: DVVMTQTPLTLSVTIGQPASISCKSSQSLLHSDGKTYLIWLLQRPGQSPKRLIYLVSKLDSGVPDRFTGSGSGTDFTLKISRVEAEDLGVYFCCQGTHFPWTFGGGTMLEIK
notes: Immunogen PSMGFR peptide; also called Antibody 18G12
Q: Does B5 bind [5]?
A: Result: binds

Q: Does B5 bind [3]?
A: Result: binds

B6: 28F9 monoclonal anti-MUC1* antibody (antibody, V domains shown)
VH: QVQLQQPGAELVQPGASVKLSCKASGYTFTGYFLYWVKQRPGHGLEWIGGIHPSNGDTDFNEKFKNKATLTVDISSSTAYMQLSSLTSEDSAVYYCTLLIGVYWGQGTTLTVSS
VL: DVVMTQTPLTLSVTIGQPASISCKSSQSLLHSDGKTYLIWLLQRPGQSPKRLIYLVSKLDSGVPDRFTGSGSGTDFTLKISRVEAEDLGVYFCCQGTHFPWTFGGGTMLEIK
notes: Anti-PSMGFR antibody; also called Antibody 28F9
Q: Does B6 bind [5]?
A: Result: binds

Q: Does B6 bind [3]?
A: Result: binds

B7: 18B4 monoclonal anti-MUC1* antibody (antibody, V domains shown)
VH: EVKLEESGGGLVQPGGSMKLSCAASGFTFNDAWMDWVRQSPEKGLEWVAEIRSTANIHTTYYAESVQGRFTISRDDSKSSVYLQMNSLRAEDTGIYYCTPLLYGFAYWGQGTLVTVSA
VL: DVVMTQSPLSLPVSLGDQASISCRTSQSLVHSNGNTYLHWHLQKPGQSPKVLIYKVSSRFSGVPDRFSGSGSGTDFTLKISRVEAEDLGVYFCSQNTHVPYTFGGGTKLEIK
notes: Immunogen PSMGFR peptide; also called Antibody 18B4
Q: Does B7 bind [5]?
A: Result: binds

Q: Does B7 bind [6]?
A: Result: no binding

Q: Does B7 bind [3]?
A: Result: binds

B8: 1E4 monoclonal anti-MUC1* antibody (antibody, V domains shown)
VH: QVQLQQSGAELVRPGSSVKISCKASGYAFSTYWMNWVKQRPGQGLEWIGQIYPGDSDTNYNGKFKGKATLTADKSSNTAYMQLSSLTSEDSAVFFCARGNHASMDYWGQGTSVTVSS
VL: DVVMTQTPLSLPVSLGDQASISCRSSQSLVHSNGNTYLHWYLQKPGQSPKLLIYKVSNRFSGVPDRFSGSGSGTDFTLKISRVEAEDLGVYFCSQKTHVPWTFGGGTKLEIK
notes: Immunogen PSMGFR N+20/C-27 peptide; also called Antibody 1E4
Q: Does B8 bind (PSMGFR N+20/C-27 peptide)?
A: Result: binds

B9: 29H1 monoclonal anti-MUC1* antibody (antibody, V domains shown)
VH: EVKLEESGGGLVQPGGSMKLSCAASGFTFSDAWMDWVRQSPEKGLEWVAEIRSKATNHATYYAESVKGRFTISRDDSKSSVYLQMNSLRAEDTGIYYCTPLLYGFAYWGQGTLVTVSA
VL: DVVMTQTPLSLPVSLGDQASISCRSGQSLVHSNGHTYLHWYLQKPGQSPRLLIYKVSNRFSGVPDRFSGSGSRADFTLKISRVEAEDLGVYFCSQTTHVPWTFGGGTKLEIK
notes: Immunogen PSMGFR N+20/C-27 peptide; also called Antibody 29H1
Q: Does B9 bind (PSMGFR N+20/C-27 peptide)?
A: Result: binds

B10: 32C1 monoclonal anti-MUC1* antibody (antibody, V domains shown)
VH: EVKLEESGGGLVQSGGSMKLSCVASGFTFSNYWMNWVRQSPEKGLEWVAEIRLKSNNYAIHYAESVKGRFTISRDDSKSSVYLQMNNLRAEDTGIYYCTRVPGLDAYWGQGTLVTVSA
VL: DVVMTQTPLSLPVSLGDQASISCRSSQSLVHSNGNTYLHWYLQKPGQSPKLLIYKVSNRFSGVPDRFSGSGSGTDFTLKISSVEAEDLGVYFCSQITHVPYTFGGGTNLEIK
notes: Immunogen PSMGFR N+20/C-27 peptide; also called Antibody 32C1
Q: Does B10 bind (PSMGFR N+20/C-27 peptide)?
A: Result: binds

B11: 3C5 monoclonal anti-MUC1* antibody (antibody, V domains shown)
VH: QIQLVQSGPELKKPGETVKISCKASGYTFTNYGMNWVKQAPGKGLKWMGWINTYTGKPTYADDFKGRFAFSLETSASTAYLQINNLKNEDTATYFCARGGLDGYYGYWGQGTTLTVSS
VL: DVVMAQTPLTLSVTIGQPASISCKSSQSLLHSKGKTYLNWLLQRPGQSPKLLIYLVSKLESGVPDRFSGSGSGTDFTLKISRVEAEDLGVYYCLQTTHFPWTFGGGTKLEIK
notes: Immunogen PSMGFR N+9/C-9 peptide; also called Antibody 3C5
Q: Does B11 bind (PSMGFR N+9/C-9 peptide)?
A: Result: binds
